Results on 7 molecules are retold here after patent publication US20210032331A1 (PHANES THERAPEUTICS, published 2021).

Where a chain is given by its changes, count along the chain named.

Assay [1] has as its target T1, full-length human LAG-3 on stably transfected CHO-S cells (human, UniProt P18627 23-525).
T1 construct: also called hLAG3
T1 sequence: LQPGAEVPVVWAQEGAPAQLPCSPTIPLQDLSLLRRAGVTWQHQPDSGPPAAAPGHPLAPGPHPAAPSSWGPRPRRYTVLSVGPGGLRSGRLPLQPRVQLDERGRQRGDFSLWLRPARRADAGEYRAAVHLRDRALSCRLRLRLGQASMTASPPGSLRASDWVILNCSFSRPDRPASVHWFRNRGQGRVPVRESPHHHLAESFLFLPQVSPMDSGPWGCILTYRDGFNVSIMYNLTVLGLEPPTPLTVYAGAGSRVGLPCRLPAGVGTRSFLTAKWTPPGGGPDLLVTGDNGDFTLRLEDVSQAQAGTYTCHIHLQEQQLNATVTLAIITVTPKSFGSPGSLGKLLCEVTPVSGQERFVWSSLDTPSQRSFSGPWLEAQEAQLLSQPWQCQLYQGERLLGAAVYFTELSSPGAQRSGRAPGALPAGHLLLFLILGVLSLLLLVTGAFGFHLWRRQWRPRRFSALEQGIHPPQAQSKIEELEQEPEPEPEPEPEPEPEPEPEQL
Nature of the assay: FACS, CHO-S cells stably transfected with full-length human LAG-3, PE anti-mouse IgG. As for the experimental part:
CHO-S cells stably transfected with full-length human LAG-3 were transferred to a 96-well plate. Around 200,000 cells were incubated with either purified chimeric anti-LAG-3 mAbs (variable regions of mouse mAbs fused to the constant regions of human IgG1 heavy chain and kappa light chain, respectively) or purified mouse anti-LAG-3 mAbs from hybridoma supernatants at various concentrations for 15 minutes at 4° C. Cells were then centrifuged at 1,000 rpm for 5 minutes and washed with FACS buffer (PBS supplemented with 5% BSA) three times. For the cells treated with the chimeric antibodies, the cells were then incubated with PE-conjugated goat anti-human IgG polyclonal antibodies and incubated on ice for another 15 minutes; for the cells treated with mouse mAbs, the cells were incubated with PE-conjugated goat anti-mouse IgG polyclonal antibodies and incubated on ice for another 15 minutes. Cells were then washed with FACS buffer three times and then resuspended in FACS buffer containing 0.1 μg/ml PI (propidium iodide) for live/dead cell gating. Cells were then run through the FACS Caliber instrument and the data were analyzed by the Flowjo software. Results of the FACS binding analysis of the mouse anti-LAG-3 mAbs (B1, B2, B3, B4, B5, B6, B7, B8, B9, B10, B11, B12, and B13) are provided in FIGS. 1A-1B.
For orientation: A flow cytometer gives signals particle by particle.

Another assay deals with T2, human LAG-3(ECD)-mFc (human, UniProt P18627 23-450).
T2 construct: also called hLAG3-mFc; human LAG-3 extracellular domain (ECD) fused to mouse Fc; not shown: mouse Fc
T2 sequence: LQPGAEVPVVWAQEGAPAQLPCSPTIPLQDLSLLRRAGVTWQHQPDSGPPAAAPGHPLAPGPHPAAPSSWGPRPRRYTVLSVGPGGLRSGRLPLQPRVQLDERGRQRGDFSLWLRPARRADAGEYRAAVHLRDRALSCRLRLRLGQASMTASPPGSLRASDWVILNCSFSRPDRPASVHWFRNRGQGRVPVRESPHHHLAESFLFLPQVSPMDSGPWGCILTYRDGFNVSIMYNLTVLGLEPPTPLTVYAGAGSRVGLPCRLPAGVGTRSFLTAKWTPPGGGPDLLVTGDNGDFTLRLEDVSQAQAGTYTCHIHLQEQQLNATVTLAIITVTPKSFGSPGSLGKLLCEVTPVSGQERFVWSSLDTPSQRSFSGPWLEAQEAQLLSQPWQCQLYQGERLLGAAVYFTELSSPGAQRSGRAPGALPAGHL
Nature of the assay: FACS blocking assay: mAb preincubated with LAG-3(ECD)-mFc (1 µg/mL), blocked ligand MHC class II on Daudi cells, PE anti-mouse Fc. How it is done:
FIGS. 4A-4D show inhibition of human LAG-3 binding to MHC class II molecules by select anti-LAG-3 mAbs. An in vitro binding assay was performed using recombinant LAG-3(ECD)-mFc and Daudi cells which express human MHC class II molecules. […] The binding of LAG-3(ECD)-mFc to Daudi cells in the presence of anti-LAG-3 mAbs or a control mAb was analyzed by FACS.
Human Daudi cells were cultured in RPMI+10% FBS. Human LAG-3(ECD)-mFc protein (human LAG-3 ECD fused to mouse Fc) at 1 μg/ml final concentration was incubated with purified mouse, humanized, or chimeric anti-LAG-3 mAbs at various concentrations for 15 minutes at 4° C. The mixture was then added to 100,000 human Daudi cells in a 96-well round bottom plate, mixed and incubated for 15 minutes on ice. Cells were then centrifuged at 1,000 rpm for 5 minutes and washed with FACS buffer (PBS supplemented with 5% BSA) three times. The cells were then incubated with PE-conjugated goat anti-mouse Fc polyclonal antibodies on ice for 15 minutes, washed with FACS buffer three times and then resuspended in FACS buffer containing 0.1 μg/ml PI (propidine iodine) for live/dead cell gating. Cells were then run through the FACS Caliber instrument and the data were analyzed by the Flowjo software. Results of the inhibition of LAG-3 binding to Daudi cells by chimeric mAbs B1C, B3C, B4C, BSC, B9C, and B11C are shown in FIG. 4B.

For a further assay, the target named is T3, human LAG-3(ECD)-huFc (human, UniProt P18627 23-450).
T3 construct: also called Fc-tagged human LAG-3(ECD)-huFc; not shown: human Fc (huFc) at the C-terminus
T3 sequence: T2 sequence
Nature of the assay: SPR (Biacore): mAb from hybridoma supernatant captured on anti-mouse IgG CM5 chip, human LAG-3(ECD)-huFc 50-400 nM injected. How it is done:
Anti-mouse IgG antibodies were immobilized via amine coupling on CM5 chip surface. Anti-LAG-3 mAbs in hybridoma supernatants were captured on the chip surface and a series of concentrations (50-400 nM) of human LAG-3(ECD)-huFc protein were injected and passed through the captured surface. The on and off rates for antibody-antigen binding were measured, curve fitted and calculated.

In another assay the target is T4, B5/IgG4.
T4 construct: Chimeric: mouse VH and VL with human IgG4 heavy chain and kappa light chain constant regions; also called B5 (human IgG4 heavy chain and kappa light chain chimeric)
Nature of the assay: ELISA peptide competition: peptide preincubated with B5/IgG4, competitor hLAG3-mFc; peptide at 600-fold hLAG3-mFc; capture on anti-human IgG, anti-mouse IgG-HRP. How it is done:
(§1) FIGS. 5A-5D show the effect of competition peptides on LAG-3 binding to anti-LAG-3 mAbs. […] B5/IgG4 was preincubated with a competition peptide for 30 minutes. Then human LAG-3 extracellular domain (ECD) fused to mouse Fc (hLAG3-mFc) was added (the final peptide concentration was 600-fold that of hLAG3-mFc) and the mixture was incubated for 60 minutes before being added to an ELISA plate coated with anti-human IgG. The incubation was carried out at 4° C. overnight. After washing, the hLAG3-mFc bound to the immobilized B5/IgG4 on the ELISA plate was detected by adding anti-mouse IgG conjugated to horseradish peroxidase (HRP) and incubating for 60 minutes. Then, after washing, the ELISA was developed using One-step Detection Solution and measured as the absorbance at 450 nm.
(§2) Anti-human IgG in carbonate coating buffer was coated on an ELISA plate at 4° C. (50 μL/well at 1 μg/mL) overnight. In each well of a separate plate, a chimeric version of a given anti-LAG-3 mAb (50 μL/well at 1.4 nM) and a competition peptide (50 μL/well at various concentrations as indicated in the figures) were mixed and incubated for 30 minutes at room temperature. Then human LAG-3 extracellular domain (ECD) fused to mouse Fc (hLAG3-mFc) was added to each well (50 μL/well at 2 nM) and the final mixture was incubated at room temperature for 60 minutes before added to the ELISA plate (50 μL/well) for another 60-minute incubation. The final incubation after adding the mixture to the ELISA plate was also performed at 4° C. overnight in some assays. The plate was washed and the binding of hLAG3-mFc to the immobilized anti-LAG-3 mAb was detected by adding anti-mouse IgG conjugated to horseradish peroxidase ([…]) (ThermoFisher Scientific, Cat#: A16084; Waltham, Mass.) and incubating for 60 minutes.
A general note: In an ELISA, binding on a coated surface is turned into a signal by an enzyme label.

Assay [2] concerns the target T5, B12 (human IgG1 heavy chain and kappa light chain chimeric).
T5 construct: Chimeric: mouse VH and VL with human IgG1 heavy chain and kappa light chain constant regions
Put plainly: ELISA peptide competition: peptide preincubated with chimeric IgG1 B12, competitor hLAG3-mFc; peptide at 600-fold hLAG3-mFc; capture on anti-human IgG, anti-mouse IgG-HRP. As for the experimental part: as §1, §2

In assay [3] the target is T6, BG29 (human IgG4 heavy chain and kappa light chain chimeric).
T6 construct: Chimeric: mouse VH and VL with human IgG4 heavy chain and kappa light chain constant regions; also called chimeric BG29
Nature of the assay: ELISA peptide competition: peptide preincubated with chimeric IgG4 BG29, competitor hLAG3-mFc; peptide at 200-fold hLAG3-mFc; capture on anti-human IgG, anti-mouse IgG-HRP. How it is done: as §1, §2

The target in another assay is T7, B7/IgG4.
T7 construct: Chimeric: mouse VH and VL with human IgG4 heavy chain and kappa light chain constant regions; also called B7 (human IgG4 heavy chain and kappa light chain chimeric)
Nature of the assay: ELISA peptide competition: peptide preincubated with B7/IgG4, competitor hLAG3-mFc; peptide at 600-fold hLAG3-mFc; final incubation 60 min at room temperature; anti-mouse IgG-HRP. As for the experimental part:
B5/IgG4 was preincubated with a competition peptide for 30 minutes. Then human LAG-3 extracellular domain (ECD) fused to mouse Fc (hLAG3-mFc) was added (the final peptide concentration was 600-fold that of hLAG3-mFc) and the mixture was incubated for 60 minutes before being added to an ELISA plate coated with anti-human IgG. The incubation was carried out at 4° C. overnight. After washing, the hLAG3-mFc bound to the immobilized B5/IgG4 on the ELISA plate was detected by adding anti-mouse IgG conjugated to horseradish peroxidase (HRP) and incubating for 60 minutes. Then, after washing, the ELISA was developed using One-step Detection Solution and measured as the absorbance at 450 nm.
The assay condition is the same as in FIG. 5A except that the final incubation of the mAb, the competition peptide, and hLAG3-mFc on the ELISA plate was performed at room temperature for 60 minutes instead of incubation at 4° C. overnight.
Anti-human IgG in carbonate coating buffer was coated on an ELISA plate at 4° C. (50 μL/well at 1 μg/mL) overnight. In each well of a separate plate, a chimeric version of a given anti-LAG-3 mAb (50 μL/well at 1.4 nM) and a competition peptide (50 μL/well at various concentrations as indicated in the figures) were mixed and incubated for 30 minutes at room temperature. Then human LAG-3 extracellular domain (ECD) fused to mouse Fc (hLAG3-mFc) was added to each well (50 μL/well at 2 nM) and the final mixture was incubated at room temperature for 60 minutes before added to the ELISA plate (50 μL/well) for another 60-minute incubation.

T4 sequence (VH, as listed by the source, chain 1 of 2): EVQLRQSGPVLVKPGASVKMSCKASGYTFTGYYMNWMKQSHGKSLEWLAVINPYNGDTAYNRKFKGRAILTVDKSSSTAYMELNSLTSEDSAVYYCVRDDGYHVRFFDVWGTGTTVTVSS
T4 sequence (VL, as listed by the source, chain 2 of 2): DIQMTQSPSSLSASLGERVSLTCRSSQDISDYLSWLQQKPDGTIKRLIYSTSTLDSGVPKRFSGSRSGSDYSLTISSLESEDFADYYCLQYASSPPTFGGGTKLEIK
T7 sequence (VH, as listed by the source, chain 1 of 2): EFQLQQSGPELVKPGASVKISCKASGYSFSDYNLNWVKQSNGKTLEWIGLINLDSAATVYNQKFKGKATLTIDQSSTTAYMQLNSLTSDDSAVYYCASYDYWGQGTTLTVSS
T7 sequence (VL, as listed by the source, chain 2 of 2): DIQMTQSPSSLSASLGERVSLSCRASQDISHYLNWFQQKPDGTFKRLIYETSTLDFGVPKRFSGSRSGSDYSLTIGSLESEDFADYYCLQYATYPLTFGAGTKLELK

B1: B12 (antibody, V domains shown)
VH: EVKLLESGGSLVQPGGSLKLSCAASGFDFSRYWMSWVRQAPGKGLEWIGEINPDSSTINYTPSLRDEFIISRDNAKNTLFLQMSKVISEDTALYYCARITSGYYFDYWGQGTTLTVSS
VL: DVVMTQTPLSLPVSLGDQASISCRSSQTIVYSNGNTYLYWYLQKPGQSPKLLIYRVSNRFPGVPDRFSGSGSGTDFTLKISGVEAEDMGVYYCFQGTHVPFTFGSGTKLEMK
notes: Mouse mAb from hybridoma; also called mouse anti-LAG-3 mAb B12
As for B1, the binding result (in assay [1]; with human LAG-3(ECD)-mFc) was “binds” in each case.

B2: B9 (antibody, V domains shown)
VH: EVQLRQSGPVLVKPGASVKMSCKASGYTFTGYYMNWVKQSHGKSLEWLAVINPYNGDTAYNRKFKGRATLTVDKSSSTAYMELNRLTSEDSAVYYCVRDDGYHVRYFDVWGTGTTVTVSS
VL: DIQMTQSPSSLSASLGERVSLTCRASQDISDSLCWLQQKPDGTIKRLIYSTSTLDSGVPKRFSGSRSGSDYSLTISSLESEDFADYYCLQYASSPPTFGGGTKLEIK
notes: Mouse mAb from hybridoma; also called mouse anti-LAG-3 mAb B9
For B2, the “EC50 (read off the curve)” value in assay [1] was ~0.2 µg/mL. This molecule also registered a Kd with human LAG-3(ECD)-huFc of 1.53 nM.

B3: 2-14 (peptide)
peptide: PPAAAPGHPLAPG
notes: also called peptide 2-14
Consider B3, for which the binding result (with B5/IgG4; in assay [2]; in assay [3]) was “binds” throughout.

B4: BG29 (antibody, V domains shown)
VH: QIQLQQSGPEVVKPGASVRISCKASGYTFSDYHINWVKQKPGQGLEWIGWIYPGRGDPEYNEKFKGKATLTVDRSASTAYMQLSSLTSEDTSVYFCEIYYGNYIDYWGQGTTLTVSS
VL: DIVMTQAAPSVPVTPGESVSISCRSSKSLLHSDGKTYLYWFLQRPGQSPQRLIYYMSNLASGVPDRFSGRGSGTDFTLRISRVEAEDVGVYYCMQSLEYPWTFGGGTKLEIK
notes: Mouse mAb from hybridoma; also called mouse anti-LAG-3 mAb BG29
Turning to B4, in assay [1], the “EC50 (read off the curve)” value was ~0.2 µg/mL.

B5: BG33 (antibody, V domains shown)
VH: B4 VH with R19K, D57N, S77N, T91S, I104L
VL: B4 VL
notes: Mouse mAb from hybridoma; also called mouse anti-LAG-3 mAb BG33
Turning to B5, the “EC50 (read off the curve)” value in assay [1] was ~0.4 µg/mL.

B6: 1-30 (peptide)
peptide: GPPAAAPGHPLAPGPHPAAPSSWGPRPRRY
notes: also called peptide 1-30
Consider B6, for which the binding result (in assay [3]; with B7/IgG4) was “binds” each time.

B7: BG27 (antibody, V domains shown)
VH: QAYLQQSGADLVRPGASVKMSCKASGYTFTSYDMHWVKQTPRQGLEWIGAIYPGNGDASYNQKFKGKATLTVDKASSTAFMQLSSLTSEDSAVYFCARGDYGNYVWFAYWGQGTLVTVSA
VL: DVVMTQTPLSLPVSLGDQASISCRSSQTIVHSNRYTYLEWYLQKPGQSLKLLIYGVSNRFSGVPDRFSGSGSGTDFTLKISRVEAEDMGVYYCFQGTHVPPTFGAGTKLELK
notes: Mouse mAb from hybridoma; also called mouse anti-LAG-3 mAb BG27
As for B7, the “EC50 (read off the curve)” value in assay [1] was ~0.3 µg/mL.

What is called EC50 (read off the curve) is the midpoint of the concentration-response curve. A high value points to lower potency in that assay. For orientation: Kd means the concentration at which binding is half-saturated. Read a high Kd as weaker binding.
